B1: r16_88_TrROS_Hall (parent)
chain: EVIELKIKFKTPEQREKLKEIAKKLNAEVVEEKDGEVIIRFKTPEQAERALKEAEKLGAEVEL

Variants of: B1
Experiment: folding stability dG (cDNA display proteolysis); higher = more stable
Conditions: PBS, room temperature

Variant | folding stability dG
G58R | 4.27 kcal/mol
K56G | 4.53 kcal/mol
K56S | 4.51 kcal/mol
K56T | 4.48 kcal/mol
K56Q | 4.43 kcal/mol
E4P | 4.4 kcal/mol
E32S | 4.48 kcal/mol
E13G | 4.51 kcal/mol
F9M | 3.98 kcal/mol
I7K | 2.77 kcal/mol
I7M | 4.39 kcal/mol
E45N | 4.39 kcal/mol
G35P | 3.8 kcal/mol
G35H | 4.16 kcal/mol
A50G | 4.46 kcal/mol
K42C | 4.29 kcal/mol
K42W | 4.26 kcal/mol
K6Q | 4.17 kcal/mol
K6R | 4.73 kcal/mol
K6F | 4.76 kcal/mol
E53L | 4.61 kcal/mol
N26V | 4.35 kcal/mol
E62P | 3.84 kcal/mol
E62S | 4.5 kcal/mol
V29F | 4.23 kcal/mol
E31A | 4.29 kcal/mol

Variant | folding stability dG
E31I | 4.45 kcal/mol
V30L | 4.44 kcal/mol
V30D | 4.27 kcal/mol
E55R | 4.57 kcal/mol
E55F | 4.59 kcal/mol
E55M | 4.37 kcal/mol
K23V | 4.62 kcal/mol
E1M | 4.3 kcal/mol
V37F | 4.55 kcal/mol
A22T | 4.36 kcal/mol
A22D | 2.91 kcal/mol
A22C | 4.17 kcal/mol
A22Q | 4.39 kcal/mol
I3W | 4.71 kcal/mol
I3M | 4.63 kcal/mol
R40F | 4.66 kcal/mol
R40H | 4.04 kcal/mol
R40W | 4.77 kcal/mol
L63Y | 4.35 kcal/mol
L18A | 4.39 kcal/mol
E16T | 4.36 kcal/mol
E16C | 4.51 kcal/mol
A47T | 4.34 kcal/mol
E60N | 4.29 kcal/mol
E60C | 4.27 kcal/mol
E60M | 4.11 kcal/mol

Variant | folding stability dG
E60P | 3.44 kcal/mol
T43K | 4.36 kcal/mol
T43H | 4.57 kcal/mol
K33T | 4.35 kcal/mol
A59V | 4.65 kcal/mol
K24V | 4.61 kcal/mol
K24T | 4.48 kcal/mol
K24P | 3.96 kcal/mol
I21C | 4.31 kcal/mol
I21P | 1.81 kcal/mol
K17D | 4.49 kcal/mol
K17Q | 4.42 kcal/mol
A54K | 3.51 kcal/mol
E20T | 4.5 kcal/mol
E20N | 4.25 kcal/mol
Q14H | 4.2 kcal/mol
Q14Y | 4.18 kcal/mol
V2S | 4.13 kcal/mol
V2P | 4.16 kcal/mol
L57N | 4.35 kcal/mol
L57Y | 4.28 kcal/mol
K8D | 3.72 kcal/mol
D34P | 4.26 kcal/mol
A27T | 4.26 kcal/mol
A27V | 4.24 kcal/mol

— the MegaScale stability set (Tsuboyama et al. 2023)
